# Patent US20140017235A1 (published 2014)
# Target: T1, human NGF (human, UniProt P01138 122-241)
# T1 construct: also called hNGF; nerve growth factor
# Assay: BIAcore SPR screening, Fab over immobilized human NGF
# Experimental: Affinities of anti-NGF Fabs and monoclonal antibodies were determined using the BIAcore3000™ surface plasmon resonance (SPR) system (BIAcore, INC, Piscaway N.J.). CM5 chips were activated with N-ethyl-N′-(3-dimethylaminopropyl)-carbodiinide hydrochloride (EDC) and N-hydroxysuccinimide (NHS) according to the supplier's instructions. Human NGF was diluted into 10 mM sodium acetate pH 4.0 and injected over the activated chip at a concentration of 0.005 mg/mL. Using variable flow time across the individual chip channels, two ranges of antigen density were achieved: 100-200 response units (RU) for detailed kinetic studies and 500-600 RU for screening assays. The chip was blocked with ethanolamine. […] HBS-EP buffer (0.01M HEPES, pH 7.4, 0.15 NaCl, 3 mM EDTA, 0.005% Surfactant […]) was used as running buffer for all the BIAcore assays.
# T1 sequence (P01138 122-241 limits assumed): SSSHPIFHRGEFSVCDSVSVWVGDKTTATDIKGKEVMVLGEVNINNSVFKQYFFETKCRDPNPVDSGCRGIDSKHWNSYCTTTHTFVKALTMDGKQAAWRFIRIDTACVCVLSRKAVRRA
binder,measurement,value
"H19-L129 (Fab, V domains shown, E. coli Fab with human Ckappa and human IgG2a CH1; also called H19-L129 Fab; Fab H19-L129) VH: QVQLQESGPGLVKPSETLSLTCTVSGFSLIGYDLNWIRQPPGKGLEWIGIIWGDGTTDYNSAVKSRVTISKDTSKNQFSLKLSSVTAADTAVYYCARGGYYYGTSYYFDYWGQGTLVTVS VL: DIQMTQSPSSLSASVGDRVTITCRASQSISNNLNWYQQKPGKAPKLLIYYTSRFHSGVPSRFSGSGSGTDFTFTISSLQPEDIATYYCQQSKTLPYTFGQGTKLEIKR",koff,0.0001 s⁻¹
